{"source": "paper PMC10194888", "about": "(PLOS ONE, 2023)", "key": {"O83132": {"molecular_target": "O83132", "test": "AUC; sedimentation velocity, 50,000 rpm, 20 °C, Working Buffer (20 mM HEPES, 0.1 M NaCl, pH 7.5, 2 mM n-octyl-β-D-glucopyranoside); 10 μM, 31 μM and 100 μM; c(s) analysis; monomer to dimer"}, "[1]": {"molecular_target": "the molecule itself", "test": "AUC; sedimentation velocity, 50,000 rpm, 20 °C, Working Buffer (20 mM HEPES, 0.1 M NaCl, pH 7.5, 2 mM n-octyl-β-D-glucopyranoside); 10 μM, 31 μM and 100 μM; c(s) analysis; monomer to dimer"}}, "data": [{"protein": "TP0094 (putative phosphotransacetylase, Pta) of Treponema pallidum, wild-type (enzyme, UniProt O83132 1-336, looked up, TP0094, putative phosphotransacetylase (Pta; EC 2.3.1.8) of Treponema pallidum; DNA fragment encoding all amino-acid residues of TP0094; also called TpPta; WT TP0094; source: E. coli BL21 AI (co-transformed with pGroESL), purified) MTFVESMQRRAVLAQKRLVLPEACEQRTLEAARLIVFRNIAAKVFLVGCERDIKNTADRCGIDLTDMVVIDPSVSKHRDQFAERYFQKRKHKGISLAQAAEDMRDPLRFAAMMLDQGHADAMVAGAENTTARVLRAGLTIIGTLPSVKTASSCFVMDTNNPRLGGTRGLFIFSDCAVIPTPTAEQLADIACSAAESCRTFIGEEPTVALLSYSTKGSGGDSDENILRVREAVRILHERRVDFTFDGELQLDAALVPKITEKKAPHSPITGKVNTLVFPDLSSGNIGYKLVQRLSDADAYGPFLQGFAKPLSDLSRGCSVEDIVAACAVTLVQSNGR", "values": [{"measurement": "mass purity of the dimer", "setting": "O83132", "result": "we estimate the mass purity of the dimer to range from 95–97%"}, {"measurement": "stoichiometry N", "setting": "[1]", "result": 2}]}]}
